The supplement of paper PMC5998384

Key:
HeLa Kyoto [1] = assay: solubility change mitosis vs G1/S (difference of NP-40 vs SDS log2 ratios) (log2 ratio difference); higher = more soluble in mitosis
HeLa Kyoto [2] = assay: melting temperature (median over replicates), in situ; higher = more thermally stable
HeLa Kyoto [3] = assay: thermal stability score vs G1/S (z-score of summed log2 fold changes over temperatures); higher = more thermally stable than in G1/S
HeLa Kyoto [4] = assay: solubility in G1/S (NP-40 vs SDS abundance) (log2 ratio); higher = more soluble; settings: cell cycle stage: G1/S
[5] = cell cycle stage: early G1 (4.5 h after nocodazole release)
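Throughout, for melting temperature (median over replicates), in situ: HeLa Kyoto cells synchronized by double thymidine or nocodazole block, proteins quantified by TMT10plex mass spectrometry, three independent biological replicates.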
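Throughout, for solubility change mitosis vs G1/S (difference of NP-40 vs SDS log2 ratios): synchronized HeLa Kyoto cells (double thymidine block for G1/S, nocodazole release for mitosis), protein amounts in NP-40 versus SDS lysates quantified by mass spectrometry, three biological replicates.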
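Throughout, for solubility in G1/S (NP-40 vs SDS abundance): HeLa Kyoto cells arrested at G1/S by double thymidine block, proteins quantified by TMT10plex mass spectrometry in mild NP-40 versus SDS extracts, three biological replicates.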
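Throughout, for thermal stability score vs G1/S (z-score of summed log2 fold changes over temperatures): synchronized HeLa Kyoto cells, proteins quantified by TMT10plex mass spectrometry, three biological replicates, mitosis taken 0.5 h after nocodazole release, G1/S directly after double thymidine block.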

Sequence | solubility change mitosis (log2) (HeLa Kyoto [1]) | melting temperature (HeLa Kyoto [2]; cell cycle stage: G1/S) [°C] | melting temperature (HeLa Kyoto [2]; cell cycle stage: mitosis) [°C] | thermal stability score (HeLa Kyoto [3]; [5]) | thermal stability score (HeLa Kyoto [3]; cell cycle stage: mitosis) | solubility in G1/S (log2) (HeLa Kyoto [4])
MEPAVSEPMRDQVARTHLTEDTPKVNADIEKVNQNQAKRCTVIGGSGFLGQHMVEQLLARGYAVNVFDIQQGFDNPQVRFFLGDLCSRQDLYPALKGVNTVFHCASPPPSSNNKELFYRVNYIGTKNVIETCKEAGVQKLILTSSASVIFEGVDIKNGTEDLPYAMKPIDYYTETKILQERAVLGANDPEKNFLTTAIRPHGIFGPRDPQLVPILIEAARNGKMKFVIGNGKNLVDFTFVENVVHGHILAAEQLSRDSTLGGKAFHITNDEPIPFWTFLSRILTGLNYEAPKYHIPYWVAYYLALLLSLLVMVISPVIQLQPTFTPMRVALAGTFHYYSCERAKKAMGYQPLVTMDDAMERTVQSFRHLRRVK [NSDHL] | -0.127 | 53.1 | 53 | 1.89 | 1.38 | -0.0523
MEPDIIRMYSSSPPPLDNGAEDDDDDEFGEFGGFSEVSPSGVGFVDFDTPDYTRPKEEFVPSNHFMPIHEFSENVDSLTSFKSIKNGNDKDITAELSAPVKGQSDVLLSTTSKEIISSEMLATSIDGMERPGNLNKVVEQRQNVGTLESFSPGDFRTNMNVVHQNKQLESCNGEKPPCLEILTNGFAVLETVNPQGTDDLDNVADSKGRKPLSTHSTEYNLDSVPSPAEEFADFATFSKKERIQLEEIECAVLNDREALTIRENNKINRVNELNSVKEVALGRSLDNKGDTDGEDQVCVSEISIVTNRGFSVEKQGLPTLQQDEFLQSGVQSKAWSLVDSADNSEAIRREQCKTEEKLDLLTSKCAHLCMDSVKTSDDEVGSPKEESRKFTNFQSPNIDPTEENDLDDSLSVKNGDSSNDFVTCNDINEDDFGDFGDFGSASGSTPPFVTGTQDSMSDATFEESSEHFPHFSEPGDDFGEFGDINAVSCQEETILTKSDLKQTSDNLSEECQLARKSSGTGTEPVAKLKNGQEGEIGHFDSVPNIQDDCNGFQDSDDFADFSSAGPSQVVDWNAFEDEQKDSCSWAAFGDQQATESHHRKEAWQSHRTDENIDTPGTPKTHSVPSATSKGAVASGHLQESATSVQTALLNRLERIFEACFPSILVPDAEEEVTSLKHLLETSTLPIKTREALPESGELLDVWTELQDIHDAHGLRYQWGGSHSNKKLLSSLGIDTRNILFTGNKKQPVIVPMYAAGLGMLEPTKEPLKPLSAAEKIASIGQTATMSPDMNTCTSDQFQESLPPVQFDWSSSGLTNPLDASGGSTLLNLDFFGPVDDSSSSSSTTIPGVDPELYELTTSKLEISTSSLKVTDAFARLMSTVEKTSTSTRKPKREEHLSEEAIKVIAGLPDLTFMHAKVLMFPATLTPSTSSQEKADG [AFTPH] | -0.029 | 52 | 51.9 | -0.487 | -1.23 | -0.151
MEPFSCDTFVALPPATVDNRIIFGKNSDRLYDEVQEVVYFPAVVHDNLGERLKCTYIEIDQVPETYAVVLSRPAWLWGAEMGANEHGVCIGNEAVWGREEVCDEEALLGMDLVRLGLERADTAEKALNVIVDLLEKYGQGGNCTEGRMVFSYHNSFLIADRNEAWILETAGKYWAAEKVQEGVRNISNQLSITTKIAREHPDMRNYAKRKGWWDGKKEFDFAAAYSYLDTAKMMTSSGRYCEGYKLLNKHKGNITFETMMEILRDKPSGINMEGEFLTTASMVSILPQDSSLPCIHFFTGTPDPERSVFKPFIFVPHISQLLDTSSPTFELEDLVKKKSHFKPDRRHPLYQKHQQALEVVNNNEEKAKIMLDNMRKLEKELFREMESILQNKHLDVEKIVNLFPQCTKDEIQIYQSNLSVKVSS [SCRN3] | -0.25 | 52.9 | 52.3 | -0.926 | -0.525 | 0.271
MEPGRRGAAALLALLCVACALRAGRAQYERYSFRSFPRDELMPLESAYRHALDKYSGEHWAESVGYLEISLRLHRLLRDSEAFCHRNCSAAPQPEPAAGLASYPELRLFGGLLRRAHCLKRCKQGLPAFRQSQPSREVLADFQRREPYKFLQFAYFKANNLPKAIAAAHTFLLKHPDDEMMKRNMAYYKSLPGAEDYIKDLETKSYESLFIRAVRAYNGENWRTSITDMELALPDFFKAFYECLAACEGSREIKDFKDFYLSIADHYVEVLECKIQCEENLTPVIGGYPVEKFVATMYHYLQFAYYKLNDLKNAAPCAVSYLLFDQNDKVMQQNLVYYQYHRDTWGLSDEHFQPRPEAVQFFNVTTLQKELYDFAKENIMDDDEGEVVEYVDDLLELEETS [CRTAP] | -0.0925 | 53.3 | 54.8 | 3.61 | 4.97 | 0.35
